From the supplement of paper PMC7877785 come the findings set out here.

± gives the uncertainty stated by the source.

This data set is described as follows: self-splicing fitness, log relative to wild type (ln ratio); higher = more splicing; Tetrahymena group I intron in knt gene, E. coli kanamycin selection, DiMSum; sequences stand for … in CUCUCU…GGAGGGAAAAGUUAUCAGGCAUGCACCUGGUAGCUAGUCUUUAAACCAAUAGAUUGCAUCGGUUUAAAAGGCAAGACCGUCAAAUUGCGGGAAAGGGGUCAACAGCCGUUCAGUACCAAGUCUCAGGGGAAACUUUGAGAUGGCCUUGCAAAGGGUAUGGUAAUAAGCUGACGGACAUGGUCCUAACCACGCAGCCAAGUCCUAAGUCAACAGAUCUUCUGUUGAUAUGGAUGCAGUUCACAGACUAAAUGUCGGUCGGGGAAGAUGUAUUCUUCUCAUAAGAUAUAGUCGGACCUCUCCUUAAUGGGAGCUAGCGGAUGAAGUGAUGCAACACUGGAGCCGCUGGGAACUAAUUUGUAUGCGAAAGUAUAUUGAUUAGUUUUGGAGUACUCGUGGUCG
The gist of the method: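 Fitness was computed with DiMSum as the error-weighted combination of replicate fold changes, kanamycin versus none, each normalised to wild type. The library randomised all eight intron nucleotides of the P1ex region, with the intron placed in the knt kanamycin-resistance gene on pET-22b(+) in E. coli BL21(DE3). Six replicate transformations were grown overnight at 37°C or 30°C on LB agar with or without 25 μg/mL kanamycin, plus 100 μg/mL carbenicillin, 50 μM IPTG and 0.2% rhamnose. Pooled colonies were amplicon-sequenced on an Illumina HiSeq 2500.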

Turning to UAUCAGCAAUAUUACGCUUA, the “self-splicing fitness (ln)” value (30 °C) is -0.532 ± 0.13 and the “self-splicing fitness (ln)” value (37 °C) amounted to 0.504 ± 0.13.

As for CGGAAGCAAUAUUACGCUAC, the “self-splicing fitness (ln)” value (30 °C) was -2.38 ± 0.24 and the “self-splicing fitness (ln)” value (37 °C) is -3.01 ± 0.47.

GAUCAGCAAUAUUACGAGGA: the “self-splicing fitness (ln)” value runs as follows: (30 °C) -1.43 ± 0.13; (37 °C) -1.85 ± 0.13.

As to CCAGAGCAAUAUUACGAGCU, the “self-splicing fitness (ln)” value was -3.54 ± 0.34 (30 °C) and -2.35 ± 0.45 (37 °C).

As to AUUCAGCAAUAUUACGCCGA, the “self-splicing fitness (ln)” value runs as follows: (30 °C) 0.0822 ± 0.39; (37 °C) -0.539 ± 0.39.

Turning to UCUCAGCAAUAUUACGUCCA, the “self-splicing fitness (ln)” value runs as follows: (30 °C) -2.72 ± 0.16; (37 °C) -1.35 ± 0.2.

In the case of AAGAAGCAAUAUUACGUCUU, the “self-splicing fitness (ln)” value by setting is: (30 °C) -2.83 ± 0.15; (37 °C) -1.63 ± 0.14.

On to CUAUAGCAAUAUUACGGAUC, for which the “self-splicing fitness (ln)” value is -3.75 ± 0.4 (30 °C) and -2.31 ± 0.25 (37 °C).

AUCCAGCAAUAUUACGAAUU: the “self-splicing fitness (ln)” value is -1.43 ± 0.084 (30 °C) and -1.04 ± 0.11 (37 °C).

CCUCAGCAAUAUUACGGGUA: the “self-splicing fitness (ln)” value is -3.23 ± 0.18 (30 °C) and -1.9 ± 0.14 (37 °C).

For the sequence AUCGAGCAAUAUUACGACUU, the “self-splicing fitness (ln)” value was -0.779 ± 0.15 (30 °C) and -0.826 ± 0.19 (37 °C).

In the case of AUGGAGCAAUAUUACGCGAA, the “self-splicing fitness (ln)” value (30 °C) was -1.66 ± 0.31 and the “self-splicing fitness (ln)” value (37 °C) is -2.36 ± 0.29.

Take GAUCAGCAAUAUUACGCGAC: the “self-splicing fitness (ln)” value runs as follows: (30 °C) -1.63 ± 0.15; (37 °C) -1.62 ± 0.15.

On to GUCGAGCAAUAUUACGGCAG, for which the “self-splicing fitness (ln)” value (37 °C) is -2.81 ± 0.44.

On to UGAAAGCAAUAUUACGUUAG, for which the “self-splicing fitness (ln)” value was -1.1 ± 0.086 (30 °C) and -0.448 ± 0.096 (37 °C).

With CUUGAGCAAUAUUACGGGGU, the “self-splicing fitness (ln)” value was -3.14 ± 0.17 (30 °C) and -3.37 ± 0.27 (37 °C).

On to ACCAAGCAAUAUUACGUGUU, for which the “self-splicing fitness (ln)” value (30 °C) is -3.99 ± 0.093 and the “self-splicing fitness (ln)” value (37 °C) is -1.54 ± 0.075.

GAUCAGCAAUAUUACGCGAU: the “self-splicing fitness (ln)” value was -3.92 ± 0.21 (30 °C) and -2.6 ± 0.2 (37 °C).

For CCGGAGCAAUAUUACGCCCA, the “self-splicing fitness (ln)” value runs as follows: (30 °C) -3.21 ± 0.32; (37 °C) -2.06 ± 0.43.

Consider GGGAAGCAAUAUUACGUGCC, for which the “self-splicing fitness (ln)” value (37 °C) is -0.148 ± 0.38.

GUUGAGCAAUAUUACGUCAC: the “self-splicing fitness (ln)” value (30 °C) was -3.41 ± 0.43 and the “self-splicing fitness (ln)” value (37 °C) is -1.86 ± 0.23.

For the sequence GCUCAGCAAUAUUACGAGCA, the “self-splicing fitness (ln)” value is -2.63 ± 0.16 (30 °C) and -1.09 ± 0.11 (37 °C).

On to UGAUAGCAAUAUUACGAAGU, for which the “self-splicing fitness (ln)” value reads like this: (30 °C) -3.67 ± 0.25; (37 °C) -3.22 ± 0.26.

In the case of GACCAGCAAUAUUACGCGAA, the “self-splicing fitness (ln)” value (30 °C) was -0.483 ± 0.059 and the “self-splicing fitness (ln)” value (37 °C) was -0.138 ± 0.083.

Take ACGAAGCAAUAUUACGUGUA: the “self-splicing fitness (ln)” value (30 °C) was -2.15 ± 0.058 and the “self-splicing fitness (ln)” value (37 °C) was -1.24 ± 0.058.

Regarding CACCAGCAAUAUUACGACAC, the “self-splicing fitness (ln)” value (30 °C) was -3.07 ± 0.27 and the “self-splicing fitness (ln)” value (37 °C) is -1.36 ± 0.22.

Take AACUAGCAAUAUUACGUACA: the “self-splicing fitness (ln)” value is -1.19 ± 0.099 (30 °C) and -0.373 ± 0.13 (37 °C).

Turning to GAGAAGCAAUAUUACGUAGC, the “self-splicing fitness (ln)” value by setting is: (30 °C) -3.47 ± 0.35; (37 °C) -0.876 ± 0.21.

Take UCCCAGCAAUAUUACGUCCU: the “self-splicing fitness (ln)” value was -3.36 ± 0.18 (30 °C) and -1.48 ± 0.15 (37 °C).

On to CGAAAGCAAUAUUACGGCGA, for which the “self-splicing fitness (ln)” value runs as follows: (30 °C) -0.763 ± 0.11; (37 °C) -0.486 ± 0.11.

For the sequence ACGUAGCAAUAUUACGUCCU, the “self-splicing fitness (ln)” value is -1.99 ± 0.13 (30 °C) and -0.452 ± 0.13 (37 °C).

Regarding UGAAAGCAAUAUUACGCUCU, the “self-splicing fitness (ln)” value by setting is: (30 °C) -2.48 ± 0.17; (37 °C) -1.37 ± 0.18.

Regarding CUCUAGCAAUAUUACGUCAG, the “self-splicing fitness (ln)” value (30 °C) is -2.85 ± 0.23 and the “self-splicing fitness (ln)” value (37 °C) was -2.34 ± 0.32.

As to CCUAAGCAAUAUUACGCGUC, the “self-splicing fitness (ln)” value was -3.25 ± 0.16 (30 °C) and -1.95 ± 0.17 (37 °C).

AUGGAGCAAUAUUACGAGAG: the “self-splicing fitness (ln)” value (37 °C) is -2.04 ± 0.23.

Take GUGCAGCAAUAUUACGAUGC: the “self-splicing fitness (ln)” value reads like this: (30 °C) -0.245 ± 0.11; (37 °C) 0.208 ± 0.17.

As to GGUCAGCAAUAUUACGGUAA, the “self-splicing fitness (ln)” value by setting is: (30 °C) -0.874 ± 0.071; (37 °C) -0.111 ± 0.069.

On to UGUAAGCAAUAUUACGCCUG, for which the “self-splicing fitness (ln)” value was 0.084 ± 0.088 (30 °C) and -0.11 ± 0.1 (37 °C).

As to GCACAGCAAUAUUACGAAGA, the “self-splicing fitness (ln)” value (30 °C) is -1.41 ± 0.14 and the “self-splicing fitness (ln)” value (37 °C) was -1.4 ± 0.18.
